Measured values: the supplement of paper PMC11246515
± gives the standard deviation of the averaged measurements.

Assay: total protein half-life in vivo (active degradation + dilution); higher = more stable protein
[1] = E. coli NCM3722 delta-clpP delta-lon delta-hslV, growth: N-lim chemostat, doubling time 6 h
[2] = E. coli NCM3722 delta-clpP, growth: N-lim chemostat, doubling time 6 h
[3] = E. coli NCM3722 delta-hslV, growth: N-lim chemostat, doubling time 6 h
[4] = E. coli NCM3722 delta-lon, growth: N-lim chemostat, doubling time 6 h
[5] = E. coli NCM3722 delta-smpB, growth: N-lim chemostat, doubling time 6 h
[6] = wild type E. coli NCM3722, growth: C-lim chemostat, doubling time 3 h
[7] = wild type E. coli NCM3722, growth: C-lim chemostat, doubling time 6 h
[8] = wild type E. coli NCM3722, growth: C-lim chemostat, doubling time 12 h
[9] = wild type E. coli NCM3722, growth: N-lim chemostat, doubling time 6 h
[10] = wild type E. coli NCM3722, growth: N-lim chemostat, doubling time 12 h
[11] = wild type E. coli NCM3722, growth: P-lim chemostat, doubling time 6 h
[12] = wild type E. coli NCM3722, growth: P-lim chemostat, doubling time 12 h

Sequence	total protein half-life in vivo [1] [h]	total protein half-life in vivo [2] [h]	total protein half-life in vivo [3] [h]	total protein half-life in vivo [4] [h]	total protein half-life in vivo [5] [h]	total protein half-life in vivo [6] [h]	total protein half-life in vivo [7] [h]	total protein half-life in vivo [8] [h]	total protein half-life in vivo [9] [h]	total protein half-life in vivo [10] [h]	total protein half-life in vivo [11] [h]	total protein half-life in vivo [12] [h]
MSEGWNIAVLGATGAVGEALLETLAERQFPVGEIYALARNESAGEQLRFGGKTITVQDAAEFDWTQAQLAFFVAGKEATAAWVEEATNSGCLVIDSSGLFALEPDVPLVVPEVNPFVLTDYRNRNVIAVPDSLTSQLLAALKPLIDQGGLSRISVTSLISASAQGKKAVDALAGQSAKLLNGIPIDEEDFFGRQLAFNMLPLLPDSEGSVREERRIVDEVRKILQDEGLMISASVVQAPVFYGHAQMVNFEALRPLAAEEARDAFVQGEDIVLSEENEFPTQVGDASGTPHLSVGCVRNDYGMPEQVQFWSVADNVRFGGALMAVKIAEKLVQEYLY	5.37 ± 0.42	4.6 ± 0.02	4.6 ± 0.11	4.9 ± 0.73	4.57 ± 0.048	3.02 ± 0.082	5.614 ± 0.008	9.85 ± 0.24	5.14 ± 0.59	8.99 ± 1.9	6.16 ± 0.097	11.9 ± 0.28
MSEIKDVIVQGLWKNNSALVQLLGLCPLLAVTSTATNALGLGLATTLVLTLTNLTISTLRHWTPAEIRIPIYVMIIASVVSAVQMLINAYAFGLYQSLGIFIPLIVTNCIVVGRAEAFAAKKGPALSALDGFSIGMGATCAMFVLGSLREIIGNGTLFDGADALLGSWAKVLRVEIFHTDSPFLLAMLPPGAFIGLGLMLAGKYLIDERMKKRRAEAAAERALPNGETGNV	2.66 ± 0.39	3.52	2.7	2.38 ± 0.21	4.72 ± 0.73	2.72 ± 0.066		5.17	3.33	5.84 ± 1.2	3.64	
MSEIVIRHAETRDYEAIRQIHAQPEVYCNTLQVPHPSDHMWQERLADRPGIKQLVACIDGDVVGHLTIDVQQRPRRSHVADFGICVDSRWKNRGVASALMREMIEMCDNWLRVDRIELTVFVDNAPAIKVYKKYGFEIEGTGKKYALRNGEYVDAYYMARVK	4.84 ± 0.053	3.7 ± 0.65	4.09 ± 0.13	4.56 ± 0.45	3.82 ± 0.33	3.03 ± 0.086	4.83 ± 0.18	10.4 ± 0.85	3.91	6.73 ± 0.38	5.26 ± 0.41	11.3 ± 0.22
MSEKLQKVLARAGHGSRREIESIIEAGRVSVDGKIAKLGDRVEVTPGLKIRIDGHLISVRESAEQICRVLAYYKPEGELCTRNDPEGRPTVFDRLPKLRGARWIAVGRLDVNTCGLLLFTTDGELANRLMHPSREVEREYAVRVFGQVDDAKLRDLSRGVQLEDGPAAFKTIKFSGGEGINQWYNVTLTEGRNREVRRLWEAVGVQVSRLIRVRYGDIPLPKGLPRGGWTELDLAQTNYLRELVELPPETSSKVAVEKDRRRMKANQIRRAVKRHSQVSGGRRSGGRNNNG	6.28 ± 0.59	5.65 ± 1.1	6.02 ± 0.61	5.92 ± 0.38	4.94 ± 0.081	2.92 ± 0.27	5.79 ± 0.66	10.4 ± 2.1	6.18 ± 1.5	9.66 ± 0.21	5.43 ± 0.43	10.6 ± 0.17
MSEKPLTKTDYLMRLRRCQTIDTLERVIEKNKYELSDNELAVFYSAADHRLAELTMNKLYDKIPSSVWKFIR [P0ACE3]	2.93						1.69 ± 0.43	0.865				
MSEKTFLVEIGTEELPPKALRSLAESFAANFTAELDNAGLAHGTVQWFAAPRRLALKVANLAEAQPDREIEKRGPAIAQAFDAEGKPSKAAEGWARGCGITVDQAERLTTDKGEWLLYRAHVKGESTEALLPNMVATSLAKLPIPKLMRWGASDVHFVRPVHTVTLLLGDKVIPATILGIQSDRVIRGHRFMGEPEFTIDNADQYPEILRERGKVIADYEERKAKIKADAEEAARKIGGNADLSESLLEEVASLVEWPVVLTAKFEEKFLAVPAEALVYTMKGDQKYFPVYANDGKLLPNFIFVANIESKDPQQIISGNEKVVRPRLADAEFFFNTDRKKRLEDNLPRLQTVLFQQQLGTLRDKTDRIQALAGWIAEQIGADVNHATRAGLLSKCDLMTNMVFEFTDTQGVMGMHYARHDGEAEDVAVALNEQYQPRFAGDDLPSNPVACALAIADKMDTLAGIFGIGQHPKGDKDPFALRRAALGVLRIIVEKNLNLDLQTLTEEAVRLYGDKLTNANVVDDVIDFMLGRFRAWYQDEGYTVDTIQAVLARRPTRPADFDARMKAVSHFRTLDAAAALAAANKRVSNILAKSDEVLSDRVNASTLKEPEEIKLAMQVVVLRDKLEPYFTEGRYQDALVELAELREPVDAFFDKVMVMVDDKELRINRLTMLEKLRELFLRVADISLLQ	6.02 ± 0.36	6.28 ± 0.94	5.56 ± 0.53	5.82 ± 0.65	5.74 ± 0.6	3.278 ± 0.0052	5.89 ± 0.085	11 ± 1	5.72 ± 0.31	10.5 ± 0.11	6.31 ± 0.44	12.2 ± 1.2
MSELNDLLTTRELQRWRLILGEAAETTLCGLDDNARQIDHALEWLYGRDPERLQRGERSGGLGGSNLTTPEWINSIHTLFPQQVIERLESDAVLRYGIEDVVTNLDVLERMQPSESLLRAVLHTKHLMNPEVLAAARRIVCQVVEEIMARLAKEVRQAFSGVRDRRRRSFIPLARNFDFKSTLRANLQHWHPQHGKLYIESPRFNSRIKRQSEQWQLVLLVDQSGSMVDSVIHSAVMAACLWQLPGIRTHLVAFDTSVVDLTADVADPVELLMKVQLGGGTNIASAVEYGRQLIEQPAKSVIILVSDFYEGGSSSLLTHQVKKCVQSGIKVLGLAALDSTATPCYDRDTAQALVNVGAQIAAMTPGELASWLAENLQS								12.9		8.61	6.39	
MSEQLVTPENVTTKDGKINLLDLNRQQMREFFKDLGEKPFRADQVMKWMYHYCCDNFDEMTDINKVLRGKLKEVAEIRAPEVVEEQRSSDGTIKWAIAVGDQRVETVYIPEDDRATLCVSSQVGCALECKFCSTAQQGFNRNLRVSEIIGQVWRAAKIVGAAKVTGQRPITNVVMMGMGEPLLNLNNVVPAMEIMLDDFGFGLSKRRVTLSTSGVVPALDKLGDMIDVALAISLHAPNDEIRDEIVPINKKYNIETFLAAVRRYLEKSNANQGRVTIEYVMLDHVNDGTEHAHQLAELLKDTPCKINLIPWNPFPGAPYGRSSNSRIDRFSKVLMSYGFTTIVRKTRGDDIDAACGQLAGDVIDRTKRTLRKRMQGEAIDIKAV	4.37 ± 0.19	2.76 ± 0.77	1.13 ± 0.07	1.57 ± 0.14	1.15 ± 0.025	1.35 ± 0.022	1.89 ± 0.12	2.442 ± 0.024	1.31 ± 0.027	1.88 ± 0.24	1.78 ± 0.32	2.3 ± 0.26
